This is an account of results in PMC1262730, “Purification and kinetic studies of recombinant gibberellin dioxygenases” (BMC Plant Biology, 2005).

One may read the Km as the concentration of substrate that gives half-maximal velocity.

Substrate in this data set: C=C1C[C@]23C[C@@]1(O)CC[C@H]2[C@@]12CCC[C@@](C)(C(=O)O1)[C@H]2[C@@H]3C(=O)O
Briefly: tritiated water release from [3H3]GA20, Michaelis-Menten fit (Origin). In kind it is biochemical, Arabidopsis thaliana. Conditions: labelled compound (possible tritium isotope effect), 4 mM 2-oxoglutarate, 0.5 mM FeSO4, 4 mM ascorbate, 4 mM DTT, BSA, catalase, 100 mM Tris-HCl pH 7.9, 30 °C.

B1: AtGA3OX4 (Arabidopsis thaliana) (protein)
chain: MPSLAEEICIGNLGSLQTLPESFTWKLTAADSLLRPSSAVSFDAVEESIPVIDLSNPDVTTLIGDASKTWGAFQIANHGISQKLLDDIESLSKTLFDMPSERKLEAASSDKGVSGYGEPRISPFFEKKMWSEGFTIADDSYRNHFNTLWPHDHTKYCGIIQEYVDEMEKLASRLLYCILGSLGVTVEDIEWAHKLEKSGSKVGRGAIRLNHYPVCPEPERAMGLAAHTDSTILTILHQSNTGGLQVFREESGWVTVEPAPGVLVVNIGDLFHILSNGKIPSVVHRAKVNHTRSRISIAYLWGGPAGDVQIAPISKLTGPAEPSLYRSITWKEYLQIKYEVFDKAMDAIRVVNPTN
notes: pET32 Xa/LIC N-terminal poly(His)-thioredoxin fusion expressed in E. coli BL21 (DE3), tag cut at engineered thrombin site, Superdex 75
With B1, the Michaelis-Menten constant (Km) came out at 0.82 µM.
